Experimental data from article doi:10.1101/2025.05.22.655678.
Read-outs that look alike come from different tables or passages of the source.

B1: 59bp-GAG (dsDNA)
DNA 1: TTTTTTTTTTTTTTTTTTTTTTTTTTTTGAGTTTTTTTTTTTTTTTTTTTTTTTTTTTT
DNA 2: AAAAAAAAAAAAAAAAAAAAAAAAAAAACTCAAAAAAAAAAAAAAAAAAAAAAAAAAAA
modifications: N6-methyladenine at A of GAG (position 30, printed M6A); legend says M.EcoGII-methylated
B2: ss-59nt-GAG (ssDNA)
DNA: TTTTTTTTTTTTTTTTTTTTTTTTTTTTGAGTTTTTTTTTTTTTTTTTTTTTTTTTTTT
modifications: N6-methyladenine at A of GAG (position 30)
B3: 60bp-4 (dsDNA)
DNA 1: GGATGCCCGCGTTGCAGGCCATGCTGTCCAGGCAGGTAGATGACGACCATCAGGGACAGC
DNA 2: GCTGTCCCTGATGGTCGTCATCTACCTGCCTGGACAGCATGGCCTGCAACGCGGGCATCC
modifications: N6-methyladenine in any context (M.EcoGII)
B4: 60bp-2-V (dsDNA)
DNA 1: GGGCTACGTCTTGCTGGCGTTCGCGACTTTTTGCTGGATGGCCTTCCCCATTATGATTCT
DNA 2: AGAATCATAATGGGGAAGGCCATCCAGCAAAAAGTCGCGAACGCCAGCAAGACGTAGCCC
modifications: N6-methyladenine in any context (M.EcoGII)
B5: GCTAG (dsDNA)
DNA 1: GGGCTACGTCTTGCTGGCGTTCGCGACGCTAGGCTGGATGGCCTTCCCCATTATGATTCT
DNA 2: AGAATCATAATGGGGAAGGCCATCCAGCCTAGCGTCGCGAACGCCAGCAAGACGTAGCCC
modifications: N6-methyladenine in any context (M.EcoGII)
B6: TCGAG (dsDNA)
DNA 1: GGGCTACGTCTTGCTGGCGTTCGCGACTCGAGGCTGGATGGCCTTCCCCATTATGATTCT
DNA 2: AGAATCATAATGGGGAAGGCCATCCAGCCTCGAGTCGCGAACGCCAGCAAGACGTAGCCC
modifications: N6-methyladenine in any context (M.EcoGII)
B7: GCGAC (dsDNA)
DNA 1: GGGCTACGTCTTGCTGGCGTTCGCGACGCGACGCTGGATGGCCTTCCCCATTATGATTCT
DNA 2: AGAATCATAATGGGGAAGGCCATCCAGCGTCGCGTCGCGAACGCCAGCAAGACGTAGCCC
modifications: N6-methyladenine in any context (M.EcoGII)
B8: GCCAG (dsDNA)
DNA 1: GGGCTACGTCTTGCTGGCGTTCGCGACGCCAGGCTGGATGGCCTTCCCCATTATGATTCT
DNA 2: AGAATCATAATGGGGAAGGCCATCCAGCCTGGCGTCGCGAACGCCAGCAAGACGTAGCCC
modifications: N6-methyladenine in any context (M.EcoGII)
B9: GCAAG (dsDNA)
DNA 1: GGGCTACGTCTTGCTGGCGTTCGCGACGCAAGGCTGGATGGCCTTCCCCATTATGATTCT
DNA 2: AGAATCATAATGGGGAAGGCCATCCAGCCTTGCGTCGCGAACGCCAGCAAGACGTAGCCC
modifications: N6-methyladenine in any context (M.EcoGII)
B10: GCGAT (dsDNA)
DNA 1: GGGCTACGTCTTGCTGGCGTTCGCGACGCGATGCTGGATGGCCTTCCCCATTATGATTCT
DNA 2: AGAATCATAATGGGGAAGGCCATCCAGCATCGCGTCGCGAACGCCAGCAAGACGTAGCCC
modifications: N6-methyladenine in any context (M.EcoGII)
B11: CCGAG (dsDNA)
DNA 1: GGGCTACGTCTTGCTGGCGTTCGCGACCCGAGGCTGGATGGCCTTCCCCATTATGATTCT
DNA 2: AGAATCATAATGGGGAAGGCCATCCAGCCTCGGGTCGCGAACGCCAGCAAGACGTAGCCC
modifications: N6-methyladenine in any context (M.EcoGII)
B12: GGGAG (dsDNA)
DNA 1: GGGCTACGTCTTGCTGGCGTTCGCGACGGGAGGCTGGATGGCCTTCCCCATTATGATTCT
DNA 2: AGAATCATAATGGGGAAGGCCATCCAGCCTCCCGTCGCGAACGCCAGCAAGACGTAGCCC
modifications: N6-methyladenine in any context (M.EcoGII)
B13: GTGAG (dsDNA)
DNA 1: GGGCTACGTCTTGCTGGCGTTCGCGACGTGAGGCTGGATGGCCTTCCCCATTATGATTCT
DNA 2: AGAATCATAATGGGGAAGGCCATCCAGCCTCACGTCGCGAACGCCAGCAAGACGTAGCCC
modifications: N6-methyladenine in any context (M.EcoGII)
B14: GCGAA (dsDNA)
DNA 1: GGGCTACGTCTTGCTGGCGTTCGCGACGCGAAGCTGGATGGCCTTCCCCATTATGATTCT
DNA 2: AGAATCATAATGGGGAAGGCCATCCAGCTTCGCGTCGCGAACGCCAGCAAGACGTAGCCC
modifications: N6-methyladenine in any context (M.EcoGII)
B15: GAGAG (dsDNA)
DNA 1: GGGCTACGTCTTGCTGGCGTTCGCGACGAGAGGCTGGATGGCCTTCCCCATTATGATTCT
DNA 2: AGAATCATAATGGGGAAGGCCATCCAGCCTCTCGTCGCGAACGCCAGCAAGACGTAGCCC
modifications: N6-methyladenine in any context (M.EcoGII)
B16: 60bp-2 (dsDNA)
DNA 1: GGGCTACGTCTTGCTGGCGTTCGCGACGCGAGGCTGGATGGCCTTCCCCATTATGATTCT
DNA 2: AGAATCATAATGGGGAAGGCCATCCAGCCTCGCGTCGCGAACGCCAGCAAGACGTAGCCC
modifications: N6-methyladenine in any context (M.EcoGII)
B17: 60bp-3 (dsDNA)
DNA 1: GCCTTCCCCATTATGATTCTTCTCGCTTCCGGCGGCATCGGGATGCCCGCGTTGCAGGCC
DNA 2: GGCCTGCAACGCGGGCATCCCGATGCCGCCGGAAGCGAGAAGAATCATAATGGGGAAGGC
modifications: N6-methyladenine in any context (M.EcoGII)
B18: 60bp-7 (dsDNA)
DNA 1: CGGCGATTTATGCCGCCTCGGCGAGCACATGGAACGGGTTGGCATGGATTGTAGGCGCCG
DNA 2: CGGCGCCTACAATCCATGCCAACCCGTTCCATGTGCTCGCCGAGGCGGCATAAATCGCCG
modifications: N6-methyladenine in any context (M.EcoGII)
B19: 60bp-7-V (dsDNA)
DNA 1: CGGCGATTTATGCCGCCTCGTTTTTCACATGGAACGGGTTGGCATGGATTGTAGGCGCCG
DNA 2: CGGCGCCTACAATCCATGCCAACCCGTTCCATGTGAAAAACGAGGCGGCATAAATCGCCG
modifications: N6-methyladenine in any context (M.EcoGII)
B20: 60bp-1 (dsDNA)
DNA 1: AGAAGCAGGCCATTATCGCCGGCATGGCGGCCGACGCGCTGGGCTACGTCTTGCTGGCGT
DNA 2: ACGCCAGCAAGACGTAGCCCAGCGCGTCGGCCGCCATGCCGGCGATAATGGCCTGCTTCT
modifications: N6-methyladenine in any context (M.EcoGII)
B21: 60bp-5 (dsDNA)
DNA 1: TGACGACCATCAGGGACAGCTTCAAGGATCGCTCGCGGCTCTTACCAGCCTAACTTCGAT
DNA 2: ATCGAAGTTAGGCTGGTAAGAGCCGCGAGCGATCCTTGAAGCTGTCCCTGATGGTCGTCA
modifications: N6-methyladenine in any context (M.EcoGII)

Tests used:
VchI [1] = biological target: T1, VchI (Vibrio cholerae); assay: EMSA
T1 chain: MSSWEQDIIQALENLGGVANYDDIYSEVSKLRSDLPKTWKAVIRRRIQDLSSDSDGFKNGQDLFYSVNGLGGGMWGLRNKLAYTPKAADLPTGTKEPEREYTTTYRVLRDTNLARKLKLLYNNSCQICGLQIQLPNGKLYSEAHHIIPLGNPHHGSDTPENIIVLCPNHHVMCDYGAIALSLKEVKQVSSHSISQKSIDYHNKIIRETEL

VchI [2] = biological target: T1, VchI; assay: EMSA

Binder | binding result (VchI [1]) | binding result (VchI [2])
B1 | binds | 
B2 | no binding | 
B3 |  | no binding
B4 | no binding | 
B5 | no binding | 
B6 | binds | 
B7 | no binding | 
B8 | no binding | 
B9 | no binding | 
B10 | no binding | 
B11 | binds | 
B12 | binds | 
B13 | binds | 
B14 | no binding | 
B15 | binds | 
B16 |  | binds
B17 |  | binds
B18 |  | binds
B19 | binds | 
B20 |  | no binding
B21 |  | binds
